Assay results reported in paper PMC12309418.

Legend:
[1] = biological target: Skeletal actin, filamentous (F-actin) (rabbit) (UniProt P68135); assay: fluorescence polarisation; equilibrium fluorescence anisotropy, pH 8.0, PLS buffer, 22 °C, 60 min; 5 nM FM-ABD2 with F-actin stabilized with 1.0 μM phalloidin; quadratic isotherm
[2] = biological target: Skeletal actin, filamentous (F-actin) (rabbit) (UniProt P68135); assay: fluorescence polarisation; equilibrium fluorescence anisotropy in a plate reader, 5 nM FM-ABD2 with F-actin stabilized with 1.0 uM phalloidin, PLS buffer pH 7.0, 22 °C, quadratic isotherm
[3] = biological target: Skeletal actin, filamentous (F-actin) (rabbit) (UniProt P68135); assay: fluorescence polarisation; equilibrium fluorescence anisotropy in a plate reader, 5 nM FM-ABD2 with F-actin stabilized with 1.0 uM phalloidin, PLS buffer pH 8.0, 22 °C, quadratic isotherm
[4] = biological target: PLS2 RD-ABD1 (a.a. 1-385) (human) (UniProt P13796); assay: fluorescence polarisation; stopped-flow fluorescence anisotropy kinetics of FM-ABD2 with RD-ABD1, 25 °C, pH 6.6 to 8.0 (the text tells the results for the whole pH range together); dissociation with excess unlabeled ABD2
[5] = biological target: PLS2 RD-ABD1 (a.a. 1-385) (human) (UniProt P13796); assay: fluorescence polarisation; stopped-flow fluorescence anisotropy, 25 °C, PLS buffer pH 7.4; association of FM-ABD2 (50 or 100 nM) with excess RD-ABD1 (kon from the slope of kobs, line forced through koff); dissociation by competition with 7.5 to 20 uM unlabeled ABD2 (koff)
[6] = biological target: Skeletal actin, filamentous (F-actin) (rabbit) (UniProt P68135); assay: fluorescence polarisation; stopped-flow fluorescence anisotropy kinetics, pH 6.8, 25 °C; association: FM-ABD2 (50 or 100 nM) with at least 10-fold F-actin; dissociation: from phalloidin-stabilized F-actin with excess unlabeled ABD2; Kd from koff and kon
[7] = biological target: PLS2 RD-ABD1 (a.a. 1-385) (human) (UniProt P13796); assay: fluorescence polarisation; stopped-flow fluorescence anisotropy, 25 °C, PLS buffer pH 7.8; association of FM-ABD2 (50 or 100 nM) with excess RD-ABD1 (kon from the slope of kobs, line forced through koff); dissociation by competition with 7.5 to 20 uM unlabeled ABD2 (koff)
[8] = biological target: Skeletal actin, filamentous (F-actin) (rabbit) (UniProt P68135); assay: fluorescence polarisation; equilibrium fluorescence anisotropy, pH 7.0, PLS buffer, 22 °C, 60 min; 5 nM FM-ABD2 with F-actin stabilized with 1.0 μM phalloidin; quadratic isotherm
[9] = biological target: Skeletal actin, filamentous (F-actin) (rabbit) (UniProt P68135); assay: fluorescence polarisation; stopped-flow fluorescence anisotropy kinetics, pH 7.0, 25 °C; association: FM-ABD2 (50 or 100 nM) with at least 10-fold F-actin; dissociation: from phalloidin-stabilized F-actin with excess unlabeled ABD2; Kd from koff and kon
[10] = biological target: PLS2 RD-ABD1 (a.a. 1-385) (human) (UniProt P13796); assay: fluorescence polarisation; stopped-flow fluorescence anisotropy, 25 °C, PLS buffer pH 6.6; association of FM-ABD2 (50 or 100 nM) with excess RD-ABD1 (kon from the slope of kobs, line forced through koff); dissociation by competition with 7.5 to 20 uM unlabeled ABD2 (koff)
[11] = biological target: Skeletal actin, filamentous (F-actin) (rabbit) (UniProt P68135); assay: fluorescence polarisation; stopped-flow fluorescence anisotropy kinetics, pH 6.6, 25 °C; association: FM-ABD2 (50 or 100 nM) with at least 10-fold F-actin; dissociation: from phalloidin-stabilized F-actin with excess unlabeled ABD2; Kd from koff and kon
[12] = biological target: PLS2 RD-ABD1 (a.a. 1-385) (human) (UniProt P13796); assay: fluorescence polarisation; stopped-flow fluorescence anisotropy, 25 °C, PLS buffer pH 8.0; association of FM-ABD2 (50 or 100 nM) with excess RD-ABD1 (kon from the slope of kobs, line forced through koff); dissociation by competition with 7.5 to 20 uM unlabeled ABD2 (koff)
[13] = biological target: PLS2 RD-ABD1-H207Y (human) (UniProt P13796); assay: fluorescence polarisation; stopped-flow fluorescence anisotropy kinetics of FM-ABD2 with RD-ABD1-H207K and RD-ABD1-H207Y, 25 °C, pH 7.0 and 8.0 (fold changes for both pH values together); dissociation with excess unlabeled ABD2
[14] = biological target: PLS2 RD-ABD1-H207K (human) (UniProt P13796); assay: as above
[15] = biological target: Skeletal actin, filamentous (F-actin) (rabbit) (UniProt P68135); assay: fluorescence polarisation; stopped-flow fluorescence anisotropy kinetics, pH 8.0, 25 °C; association of FM-ABD2 (50 or 100 nM) with at least 10-fold F-actin; koff could not be measured
[16] = biological target: Skeletal actin, filamentous (F-actin) (rabbit) (UniProt P68135); assay: fluorescence polarisation; stopped-flow fluorescence anisotropy kinetics, pH 7.8, 25 °C; association of FM-ABD2 (50 or 100 nM) with at least 10-fold F-actin; koff could not be measured
[17] = biological target: Skeletal actin, filamentous (F-actin) (rabbit) (UniProt P68135); assay: fluorescence polarisation; stopped-flow fluorescence anisotropy kinetics, pH 7.4, 25 °C; association: FM-ABD2 (50 or 100 nM) with at least 10-fold F-actin; dissociation: from phalloidin-stabilized F-actin with excess unlabeled ABD2; Kd from koff and kon
[18] = biological target: PLS2 RD-ABD1 (a.a. 1-385) (human) (UniProt P13796); assay: fluorescence polarisation; stopped-flow fluorescence anisotropy, 25 °C, PLS buffer pH 7.0; association of FM-ABD2 (50 or 100 nM) with excess RD-ABD1 (kon from the slope of kobs, line forced through koff); dissociation by competition with 7.5 to 20 uM unlabeled ABD2 (koff)
[19] = biological target: PLS2 RD-ABD1 (a.a. 1-385) (human) (UniProt P13796); assay: fluorescence polarisation; equilibrium fluorescence anisotropy, pH 7.0, PLS buffer, 22 °C, 60 min; 10 nM FM-ABD2 with RD-ABD1; quadratic isotherm
[20] = biological target: fluorescein-maleimide labeled ABD2 of PLS2 (human); assay: fluorescence polarisation; stopped-flow fluorescence anisotropy kinetics, 25 °C, buffer pH 8.0; association: FM-ABD2 (50 or 100 nM) with at least 10-fold excess of the unlabeled RD-ABD1 construct (pseudo-first-order); dissociation: 25 or 50 nM FM-ABD2 bound to 50 or 100 nM RD-ABD1 construct, competed with 7.5 to 20 μM unlabeled ABD2; Kd calculated from koff and kon
[21] = biological target: fluorescein-maleimide labeled ABD2 of PLS2 (human); assay: fluorescence polarisation; stopped-flow fluorescence anisotropy kinetics, 25 °C, buffer pH 7.0; association: FM-ABD2 (50 or 100 nM) with at least 10-fold excess of the unlabeled RD-ABD1 construct (pseudo-first-order); dissociation: 25 or 50 nM FM-ABD2 bound to 50 or 100 nM RD-ABD1 construct, competed with 7.5 to 20 μM unlabeled ABD2; Kd calculated from koff and kon
[22] = biological target: fluorescein-maleimide labeled ABD2 of PLS2 (human); assay: fluorescence polarisation; stopped-flow fluorescence anisotropy kinetics, 25 °C, buffer pH 6.6; association: FM-ABD2 (50 or 100 nM) with at least 10-fold excess of unlabeled RD-ABD1 (pseudo-first-order); dissociation: 25 or 50 nM FM-ABD2 bound to 50 or 100 nM RD-ABD1, competed with 7.5 to 20 μM unlabeled ABD2; Kd calculated from koff and kon
[23] = biological target: fluorescein-maleimide labeled ABD2 of PLS2 (human); assay: fluorescence polarisation; equilibrium fluorescence anisotropy in a plate reader, 10 nM FM-ABD2 with increasing RD-ABD1, 60 min at 22 °C, PLS buffer pH 7.0, quadratic isotherm fit
[24] = biological target: fluorescein-maleimide labeled ABD2 of PLS2 (human); assay: fluorescence polarisation; stopped-flow fluorescence anisotropy kinetics, 25 °C, buffer pH 7.8; association: FM-ABD2 (50 or 100 nM) with at least 10-fold excess of unlabeled RD-ABD1 (pseudo-first-order); dissociation: 25 or 50 nM FM-ABD2 bound to 50 or 100 nM RD-ABD1, competed with 7.5 to 20 μM unlabeled ABD2; Kd calculated from koff and kon
[25] = biological target: fluorescein-maleimide labeled ABD2 of PLS2 (human); assay: fluorescence polarisation; stopped-flow fluorescence anisotropy kinetics, 25 °C, buffer pH 7.4; association: FM-ABD2 (50 or 100 nM) with at least 10-fold excess of unlabeled RD-ABD1 (pseudo-first-order); dissociation: 25 or 50 nM FM-ABD2 bound to 50 or 100 nM RD-ABD1, competed with 7.5 to 20 μM unlabeled ABD2; Kd calculated from koff and kon
[26] = biological target: fluorescein-maleimide labeled ABD2 of PLS2 (human); assay: fluorescence polarisation; equilibrium fluorescence anisotropy in a plate reader, 10 nM FM-ABD2 with increasing RD-ABD1, 60 min at 22 °C, PLS buffer pH 8.0, quadratic isotherm fit
[27] = biological target: Skeletal actin, filamentous (F-actin) (rabbit) (UniProt P68135)

Chain of PLS2 RD-ABD1 (a.a. 1-385) (human) (P13796 1-385): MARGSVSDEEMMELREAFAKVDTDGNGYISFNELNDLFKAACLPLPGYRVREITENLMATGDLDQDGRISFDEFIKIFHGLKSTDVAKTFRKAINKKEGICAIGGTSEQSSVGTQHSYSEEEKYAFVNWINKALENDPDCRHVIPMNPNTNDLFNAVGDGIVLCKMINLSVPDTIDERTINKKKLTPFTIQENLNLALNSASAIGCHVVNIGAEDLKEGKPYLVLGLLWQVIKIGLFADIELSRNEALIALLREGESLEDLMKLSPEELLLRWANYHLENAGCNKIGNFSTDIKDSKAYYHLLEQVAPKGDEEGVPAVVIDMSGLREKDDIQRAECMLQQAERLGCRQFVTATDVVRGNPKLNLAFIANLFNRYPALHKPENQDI
Chain of PLS2 RD-ABD1 (a.a. 1–385) (P13796 1-385): as above
Chain of PLS2-core (a.a. 83–627) (P13796 83-627): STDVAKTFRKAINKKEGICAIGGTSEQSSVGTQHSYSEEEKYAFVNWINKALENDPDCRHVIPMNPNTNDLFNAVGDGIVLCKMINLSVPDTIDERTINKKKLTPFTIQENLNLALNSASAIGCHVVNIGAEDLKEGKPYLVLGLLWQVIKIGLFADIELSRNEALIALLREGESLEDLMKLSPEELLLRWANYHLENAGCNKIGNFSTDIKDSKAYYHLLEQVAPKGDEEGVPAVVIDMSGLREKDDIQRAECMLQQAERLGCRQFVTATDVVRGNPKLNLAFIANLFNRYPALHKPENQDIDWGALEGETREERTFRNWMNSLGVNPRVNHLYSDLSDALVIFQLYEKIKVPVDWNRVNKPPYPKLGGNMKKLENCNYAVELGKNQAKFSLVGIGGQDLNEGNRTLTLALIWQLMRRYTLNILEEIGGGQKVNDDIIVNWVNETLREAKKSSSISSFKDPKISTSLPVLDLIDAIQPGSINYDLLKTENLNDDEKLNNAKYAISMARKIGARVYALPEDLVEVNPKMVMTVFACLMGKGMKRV

## fluorescein-maleimide labeled PLS2 ABD2 (FM-ABD2) (domain or fragment)
[1]
  Kd: 1.7 nM
[2]
  Kd: 2.88 nM
[3]
  Kd: 0.613 nM
[4]
  fold slower kon at pH 8.0 than at pH 6.6: 2 fold
  koff: 0.008 s⁻¹
[5]
  koff: 0.0135 s⁻¹
  kon: 1.24e+06 M⁻¹ s⁻¹
[6]
  Kd: 13 nM
  koff: 0.0066 s⁻¹
  kon: 502000 M⁻¹ s⁻¹
[7]
  koff: 0.00826 s⁻¹
  kon: 1.07e+06 M⁻¹ s⁻¹
[8]
  Kd: 5 nM
[9]
  Kd: 9.5 nM
  koff: 0.0057 s⁻¹
  kon: 600000 M⁻¹ s⁻¹
[10]
  koff: 0.00992 s⁻¹
  kon: 1.94e+06 M⁻¹ s⁻¹
[11]
  Kd: 15 nM
  koff: 0.0073 s⁻¹
  kon: 479000 M⁻¹ s⁻¹
[12]
  koff: 0.0077 s⁻¹
  kon: 1.01e+06 M⁻¹ s⁻¹
[13]
  fold change of kon against WT RD-ABD1: < 1.2 fold
  fold decrease of koff against WT RD-ABD1: 3 to 4 fold
[14]
  fold change of kon against WT RD-ABD1: < 1.2 fold
  fold increase of koff against WT RD-ABD1: 4 to 12 fold
[15]
  kon: 1.45e+06 M⁻¹ s⁻¹
[16]
  kon: 1.28e+06 M⁻¹ s⁻¹
[17]
  Kd: 12 nM
  koff: 0.0073 s⁻¹
  kon: 601000 M⁻¹ s⁻¹
[18]
  koff: 0.00905 s⁻¹
  kon: 1.6e+06 M⁻¹ s⁻¹
[19]
  fold stronger association at pH 7.0 than at pH 8.0: 2 fold

## PLS2 RD-ABD1-H207K (from UniProt P13796 1-385) (domain or fragment)
[20]
  kon: 1.12e+06 M⁻¹ s⁻¹
[21]
  Kd: 24 nM
  koff: 0.039 s⁻¹
  kon: 1.59e+06 M⁻¹ s⁻¹

## PLS2 RD-ABD1 (a.a. 1–385) (from UniProt P13796 1-385) (domain or fragment)
[20]
  Kd: 7.6 nM
  koff: 0.008 s⁻¹
  kon: 1.01e+06 M⁻¹ s⁻¹
[22]
  Kd: 5.1 nM
  koff: 0.01 s⁻¹
  kon: 1.94e+06 M⁻¹ s⁻¹
[23]
  Kd: 4.5 nM
[24]
  Kd: 7.7 nM
  koff: 0.008 s⁻¹
  kon: 1.07e+06 M⁻¹ s⁻¹
[21]
  Kd: 5.7 nM
  koff: 0.009 s⁻¹
  kon: 1.6e+06 M⁻¹ s⁻¹
[25]
  Kd: 11 nM
  koff: 0.013 s⁻¹
  kon: 1.24e+06 M⁻¹ s⁻¹
[26]
  Kd: 8.7 nM

## PLS2-core (a.a. 83–627) (from UniProt P13796 83-627) (domain or fragment)
[27]
  fold decrease in F-actin bundling by PLS2-core (light scattering; low-speed centrifugation), pH 8.0 against pH 7.0: 2 fold

## PLS2 RD-ABD1-H207Y (from UniProt P13796 1-385) (domain or fragment)
[20]
  Kd: 2.2 nM
  koff: 0.0026 s⁻¹
  kon: 1.21e+06 M⁻¹ s⁻¹
[21]
  Kd: 1.1 nM
  koff: 0.0021 s⁻¹
  kon: 1.87e+06 M⁻¹ s⁻¹
